Assay: In vitro drug permeation studies across caco-2 monolayer on Transwell inserts
Type: in vitro ADME, Human
Conditions: PEGDMA 15% Texas red-BSA, 30% FITC-BSA, 45% DNP-BSA reservoirs of same device; FIG. 6
Protocol: In vitro drug permeation studies. The drug loaded microdevices were released within 2 min from the wafers using 8 M potassium hydroxide (KOH) solution that was preheated to 40° C. The released microdevices being less dense than water was ultracentrifuged (30 kDa Amicon ultra centrifugal filters) and washed with PBS twice for release and permeation studies. Human colorectal adenocarcinoma epithelial cells (caco-2 ATCC) were grown to confluency (transepithelial electrical resistance plateau at 900-1000Ω) on 50% collagen-ethanol (Type 1, Becton Dickinson, Franklin Lakes, N.J.) treated 24-well Transwell® inserts. The caco-2 cells were maintained in Modified Eagle's Media (MEM) with 20% fetal bovine serum (Invitrogen), 2 mM L-glutamine, 1.5 g/L sodium bicarbonate, 2.5 g/L glucose, 10 mM HEPES buffer, 1.0 mM sodium pyruvate, and 1 mg/mL penicillin/streptomycin for 5 days or more prior to seeding. […] Discrete time (20 min) samples were taken from both the upper and lower chamber of the Transwell® for the different drug loaded systems and observed for fluorescence using a Packard Fluorocount Microplate Fluorometer (Meriden, Conn.).
To measure the drug elution kinetics of the various microdevices, release of the different fluorophore tagged BSAs were monitored, in vitro, from hydrogel laden microdevices. […]

| Substance | relative release rate at different crosslinking ratio |
| --- | --- |
| Texas red-BSA: fluorescently labeled bovine serum albumin, model fluorophore-drug | released faster than FITC-BSA |
| FITC-BSA: fluorescently labeled bovine serum albumin, model fluorophore-drug | released faster than DNP-BSA |

Reference: US9878137B2, “Bioactive agent delivery devices and methods of making and using the same” (The Regents of the University of California, priority 2012, dated 2018)
